Results on 5 sequences are retold here after publication PMC7241556.

The data set concerns T1, Rsp (Staphylococcus aureus NCTC8325), ORF:0cc986df.
T1 sequence: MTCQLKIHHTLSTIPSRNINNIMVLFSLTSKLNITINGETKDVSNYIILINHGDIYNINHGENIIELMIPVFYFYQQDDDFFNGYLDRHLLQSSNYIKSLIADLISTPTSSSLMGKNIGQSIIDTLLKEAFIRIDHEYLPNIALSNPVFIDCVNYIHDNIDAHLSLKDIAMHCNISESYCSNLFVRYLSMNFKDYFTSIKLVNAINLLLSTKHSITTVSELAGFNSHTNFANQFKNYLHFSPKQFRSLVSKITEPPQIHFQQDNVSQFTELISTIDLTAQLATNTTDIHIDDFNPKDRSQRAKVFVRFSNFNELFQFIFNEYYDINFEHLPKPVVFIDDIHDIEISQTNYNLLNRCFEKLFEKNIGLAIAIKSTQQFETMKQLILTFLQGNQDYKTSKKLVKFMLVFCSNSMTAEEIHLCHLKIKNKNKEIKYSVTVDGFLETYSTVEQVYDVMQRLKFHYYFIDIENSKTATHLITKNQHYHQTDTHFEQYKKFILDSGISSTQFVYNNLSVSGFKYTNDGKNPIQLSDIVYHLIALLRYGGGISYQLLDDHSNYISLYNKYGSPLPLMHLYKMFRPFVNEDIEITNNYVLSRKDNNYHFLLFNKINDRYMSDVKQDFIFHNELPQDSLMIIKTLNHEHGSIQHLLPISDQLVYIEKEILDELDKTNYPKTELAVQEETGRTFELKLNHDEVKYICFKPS
The data set can be described thus: EMSA. On the technique in general: Mobility shift assays separate free from complexed probe on a gel.
Consider “AACCTTCCATTGAAAACACTCCTTAAAATTTAAATTTGAAGATAACAAAAACGTGCGTAGCTTTTAAATCACCGAAATGTTATTCGCTT (double strand) [psmβ promoter 89 bp]”, for which the binding result is “no binding”.

Consider “ACTTAAATACGAATTCAGGCAACTTAATTGTGTTAAATACAGTTTTGAATGCCTAACTGTATTTCTTTTCTCTTTAAAATACAGTTAAGTACATTATAAGATGTTGTGCGGATAAACAAACTAATTGCATCAAATTTATTTTAAAATAACAACAACAAAACGTTAAGCGAATAACATTTCGGTGATTTAAAAGCTACGCACGTTTTTGTTATCTTCAAATTTAAATTTTAAGGAGTGTTTTCAATGGAAGGTT (double strand) [psmβ promoter 253 bp]”, for which the binding result is reported as “binds”.

As to “GCCAGCGATGATACCCATTAAGATTACCTCCTTTGCTTATGAGTTAACTTCATTGTACATAGTTATCTTGTGCGTAATTGATTTT (double strand) [psmα promoter 85 bp]”, the binding entry is listed as “no binding”.

As to “TAGTGTTGTTGTTACTGAGCTGACTATACGTGTTTTCATTTTCATCATCCTTCTATTTTTTAAAACGATTTGAGGAAACAATAATCAATATGTCAATTTAGAATATTGCA (double strand) [hla promoter 110 bp]”, the binding result was “no binding”.

Regarding “TGATTTTAAAAATTTCCATGTTTTACATTTAAATGATAGATTTCAATATATATTAGGCAGGAGAGAGAAATATGACATGCCAACTTAAA (double strand) [rsp promoter 89 bp]”, the binding result is reported as “no binding”.
